The Immune Epitope Database (IEDB)
Blank lines part the entries; values can stand above or below the sequence they belong to.

Key:
HLA-A*11:01 [1] = experiment: IEDB peptide-MHC binding, purified MHC/competitive/fluorescence; ≥ and ≤ were set here for values at or beyond the usual limits of such assays
HLA-A*03:01 [2] = experiment: as above
HLA-A*02:02 = experiment: IEDB peptide-MHC binding, purified MHC/competitive/radioactivity; filed as Kd, often an IC50 or EC50 that approximates it; ≥ and ≤ were set here for values at or beyond the usual limits of such assays
HLA-A*68:02 = experiment: as above
HLA-A*02:01 [3] = experiment: as above
HLA-B*48:01 = experiment: IEDB peptide-MHC binding, purified MHC/direct/fluorescence; filed as Kd, often an IC50 or EC50 that approximates it; ≥ and ≤ were set here for values at or beyond the usual limits of such assays; conditions: source organism: Burkholderia mallei ATCC 23344
HLA-B*57:01 = experiment: IEDB peptide-MHC binding, purified MHC/competitive/fluorescence; filed as Kd, often an IC50 or EC50 that approximates it; ≥ and ≤ were set here for values at or beyond the usual limits of such assays
HLA-B*51:01 [4] = experiment: as above; conditions: source organism: Helicobacter pylori 26695
HLA-B*18:01 = experiment: as above
HLA-B*27:03 = experiment: as above
HLA-A*26:01 = experiment: as above
HLA-B*15:01 = experiment: as above
HLA-A*02:01 [5] = experiment: as above
HLA-B*39:01 = experiment: as above
HLA-A*03:01 [6] = experiment: as above
HLA-B*46:01 = experiment: as above
HLA-B*44:02 = experiment: IEDB peptide-MHC binding, purified MHC/competitive/radioactivity; filed as Kd, often an IC50 or EC50 that approximates it; ≥ and ≤ were set here for values at or beyond the usual limits of such assays; conditions: source organism: Hepatitis C virus (isolate 1)
HLA-A*02:03 = experiment: as above
HLA-B*54:01 = experiment: as above
HLA-A*02:06 = experiment: as above
HLA-A*68:01 = experiment: as above
HLA-A*33:01 = experiment: as above
HLA-B*40:02 = experiment: as above; conditions: source organism: Hepatitis C virus (isolate 1)
HLA-A*11:01 [7] = experiment: as above
HLA-B*08:01 = experiment: as above; conditions: source organism: Hepatitis C virus (isolate 1)
HLA-B*53:01 = experiment: as above
HLA-A*03:01 [8] = experiment: as above
HLA-B*44:03 = experiment: as above; conditions: source organism: Hepatitis C virus (isolate 1)
HLA-A*01:01 [9] = experiment: as above; conditions: source organism: Hepatitis C virus (isolate 1)
HLA-B*40:01 = experiment: as above; conditions: source organism: Hepatitis C virus (isolate 1)
HLA-A*31:01 = experiment: as above
HLA-A*02:01 [10] = experiment: IEDB peptide-MHC binding, purified MHC/competitive/fluorescence; ≥ and ≤ were set here for values at or beyond the usual limits of such assays
HLA-A*24:02 = experiment: as above; conditions: source organism: Zaire ebolavirus
HLA-A*01:01 [11] = experiment: IEDB peptide-MHC binding, purified MHC/competitive/fluorescence; filed as Kd, often an IC50 or EC50 that approximates it; ≥ and ≤ were set here for values at or beyond the usual limits of such assays; conditions: source organism: Influenza A virus (A/equine/California/8560/2002(H3N8))
HLA-B*51:01 [12] = experiment: IEDB peptide-MHC binding, purified MHC/competitive/radioactivity; filed as Kd, often an IC50 or EC50 that approximates it; ≥ and ≤ were set here for values at or beyond the usual limits of such assays; conditions: source organism: Vaccinia virus WR
HLA-B*07:02 = experiment: as above; conditions: source organism: Vaccinia virus WR
HLA-B*35:01 = experiment: as above; conditions: source organism: Vaccinia virus WR
HLA-A*30:01 = experiment: as above; conditions: source organism: Vaccinia virus WR
[13] = source organism: Vaccinia virus Copenhagen
[14] = source organism: Lassa virus Josiah
[15] = source organism: Helicobacter pylori 26695
[16] = source organism: Hepatitis C virus (isolate 1)
[17] = source organism: Zaire ebolavirus
[18] = source organism: Vaccinia virus
[19] = source organism: Sudan ebolavirus
[20] = source organism: Triticum aestivum
[21] = source organism: Vaccinia virus WR
[22] = source organism: HIV-1 M:B_ARV2/SF2
[23] = source organism: Camelpox virus CMS

Sequence: ANCSSISIK
IC50 (HLA-A*11:01 [1]; [13]): 2.78 µM | IC50 (HLA-A*03:01 [2]; [13]): 42.4 µM

Kd (HLA-A*02:02; source organism: Homo sapiens): 2.62 µM | Kd (HLA-A*68:02; source organism: Homo sapiens): 2.98 µM | Kd (HLA-A*02:01 [3]; source organism: Homo sapiens): ≥ 50.6 µM
Sequence: DLNGAQIKL

Sequence: DLNLGNLN
Kd (HLA-A*02:01 [3]; source organism: Hepatitis B virus subtype ayw): ≥ 5 µM

Sequence: EQGKQHAWL
Kd (HLA-B*48:01): ≥ 20 µM

Sequence: FLLLCGRSCT
Kd (HLA-A*02:01 [3]; [14]): ≥ 25 µM

Sequence: GIVCYNEEV
Kd (HLA-B*57:01; [15]): ≥ 20 µM | Kd (HLA-B*51:01 [4]): ≥ 20 µM | Kd (HLA-B*18:01; [15]): ≥ 20 µM | Kd (HLA-B*27:03; [15]): ≥ 20 µM | Kd (HLA-A*26:01; [15]): ≥ 20 µM | Kd (HLA-B*15:01; [15]): ≥ 20 µM | Kd (HLA-A*02:01 [5]; [15]): 0.038 µM | Kd (HLA-B*39:01; [15]): ≥ 20 µM | Kd (HLA-A*03:01 [6]; [15]): ≥ 20 µM | Kd (HLA-B*46:01; [15]): ≥ 20 µM

Sequence: HIPGDTLFK
IC50 (HLA-A*11:01 [1]; source organism: Variola virus): 0.735 µM | IC50 (HLA-A*03:01 [2]; source organism: Variola virus): 6.64 µM

Sequence: HPNIEEVAL
Kd (HLA-A*02:02; [16]): 4 µM | Kd (HLA-B*44:02): ≥ 78 µM | Kd (HLA-A*02:03; [16]): 17.2 µM | Kd (HLA-B*54:01; [16]): 4.57 µM | Kd (HLA-A*02:06; [16]): ≥ 67.3 µM | Kd (HLA-A*68:01; [16]): ≥ 57.9 µM | Kd (HLA-A*33:01; [16]): ≥ 77.7 µM | Kd (HLA-A*68:02; [16]): ≥ 69.8 µM | Kd (HLA-B*40:02): ≥ 77.3 µM | Kd (HLA-A*11:01 [7]; [16]): ≥ 77.9 µM | Kd (HLA-A*02:01 [3]; [16]): ≥ 70.5 µM | Kd (HLA-B*08:01): ≥ 36 µM | Kd (HLA-B*53:01; [16]): 0.163 µM | Kd (HLA-A*03:01 [8]; [16]): ≥ 78 µM | Kd (HLA-B*44:03): ≥ 48.2 µM | Kd (HLA-A*01:01 [9]): 16 µM | Kd (HLA-B*40:01): ≥ 76.2 µM | Kd (HLA-A*31:01; [16]): ≥ 77.9 µM

Sequence: KILMNFHQK
IC50 (HLA-A*11:01 [1]; [17]): 0.441 µM | IC50 (HLA-A*02:01 [10]; [17]): ≥ 95.4 µM | IC50 (HLA-A*24:02): 50.3 µM | IC50 (HLA-A*03:01 [2]; [17]): 3.35 µM

Sequence: LEYKTLCDM
IC50 (HLA-A*11:01 [1]; [18]): 44.8 µM | IC50 (HLA-A*03:01 [2]; [18]): ≥ 289 µM

Sequence: LGLRKRSRR
IC50 (HLA-A*11:01 [1]; [19]): 65.8 µM | IC50 (HLA-A*03:01 [2]; [19]): 6.72 µM

Sequence: LLSQRTRDI
Kd (HLA-A*02:01 [3]; [14]): 12.5 µM

Kd (HLA-A*02:02; [20]): 0.436 µM | Kd (HLA-A*02:03; [20]): 0.0188 µM | Kd (HLA-A*02:06; [20]): 0.0275 µM | Kd (HLA-A*68:02; [20]): ≥ 56.5 µM | Kd (HLA-A*02:01 [3]; [20]): 0.0913 µM
Sequence: LQQSTYQLV

Sequence: LRTFSILNR
IC50 (HLA-A*11:01 [1]; [17]): 33.1 µM | IC50 (HLA-A*02:01 [10]; [17]): ≥ 248 µM | IC50 (HLA-A*03:01 [2]; [17]): ≥ 111 µM

Sequence: LSVETITEK
Kd (HLA-A*68:01; [21]): 0.261 µM | Kd (HLA-A*33:01; [21]): 1.52 µM | Kd (HLA-A*31:01; [21]): 2.92 µM | IC50 (HLA-A*11:01 [1]; [13]): 6.6 µM | IC50 (HLA-A*02:01 [10]; [13]): ≥ 134 µM | IC50 (HLA-A*03:01 [2]; [13]): ≥ 101 µM

Sequence: MTIASVPTSRY
Kd (HLA-A*01:01 [11]): 2.04 µM

Sequence: MTIREFPRK
Kd (HLA-A*02:02; [21]): ≥ 77.8 µM | Kd (HLA-B*51:01 [12]): ≥ 77.5 µM | Kd (HLA-A*02:03; [21]): ≥ 78.1 µM | Kd (HLA-B*54:01; [21]): ≥ 78.1 µM | Kd (HLA-A*02:06; [21]): ≥ 65.6 µM | Kd (HLA-A*68:01; [21]): 0.00619 µM | Kd (HLA-B*07:02): ≥ 77.5 µM | Kd (HLA-B*35:01): ≥ 77.4 µM | Kd (HLA-A*33:01; [21]): 1.38 µM | Kd (HLA-A*68:02; [21]): 3.32 µM | Kd (HLA-A*11:01 [7]; [21]): 0.00392 µM | Kd (HLA-A*30:01): 0.00159 µM | Kd (HLA-A*02:01 [3]; [21]): ≥ 78.1 µM | Kd (HLA-B*53:01; [21]): ≥ 78.2 µM | Kd (HLA-A*03:01 [8]; [21]): 0.00627 µM | Kd (HLA-A*31:01; [21]): 0.0998 µM

Sequence: NRSTKGGQQ
IC50 (HLA-A*11:01 [1]; [17]): ≥ 140 µM | IC50 (HLA-A*03:01 [2]; [17]): ≥ 286 µM

Sequence: QIIHDFVDK
IC50 (HLA-A*11:01 [1]; [17]): 6.34 µM | IC50 (HLA-A*02:01 [10]; [17]): ≥ 262 µM | IC50 (HLA-A*03:01 [2]; [17]): ≥ 97.5 µM

Sequence: SIFLHLVKI
Kd (HLA-A*02:01 [3]; [14]): 0.385 µM

Sequence: TNAMVTLRK
IC50 (HLA-A*11:01 [1]; [17]): 0.311 µM | IC50 (HLA-A*02:01 [10]; [17]): ≥ 1090 µM | IC50 (HLA-A*24:02): ≥ 188 µM | IC50 (HLA-A*03:01 [2]; [17]): 6.42 µM

Sequence: VIYQYMDDL
Kd (HLA-A*02:02; [22]): 0.156 µM | Kd (HLA-A*02:03; [22]): 4.74 µM | Kd (HLA-A*02:06; [22]): 7.68 µM | Kd (HLA-A*68:02; [22]): ≥ 56.2 µM | Kd (HLA-A*02:01 [3]; [22]): 5.84 µM

Sequence: VLYYHMMKD
IC50 (HLA-A*11:01 [1]; [17]): 12.6 µM | IC50 (HLA-A*02:01 [10]; [17]): 48.1 µM | IC50 (HLA-A*03:01 [2]; [17]): 26 µM

Sequence: WVIDTLNGI
Kd (HLA-B*57:01; [23]): ≥ 20 µM | Kd (HLA-B*18:01; [23]): ≥ 20 µM | Kd (HLA-B*27:03; [23]): ≥ 20 µM | Kd (HLA-A*26:01; [23]): ≥ 20 µM | Kd (HLA-B*15:01; [23]): ≥ 20 µM | Kd (HLA-A*02:01 [5]; [23]): 0.0074 µM | Kd (HLA-B*39:01; [23]): ≥ 20 µM | Kd (HLA-A*03:01 [6]; [23]): ≥ 20 µM | Kd (HLA-B*46:01; [23]): ≥ 20 µM
